# B1: NcadEC-Fc (Fc fusion)
# chain: DWVIPPVNVLENSRKQFPEELVKIQSDKDKSNTLRYSVTGPGADQNPTGLFIIDPISGLLSVTKPLDREHIPNFHLRAHAVDINGNQMENPIDIIINVIDMNDNRPEFTHQIWNGTVDEGAKPGTFVMTVTSQDKDDPNTANGMLRYKILSQTPESPSSNMFTINNKTGKIITVAAGLDREKVPQYTLIIQATDMEGNPTYGLSNTATAVIRLLDVNDNAPEFTRETFHGEVPENRVNVIVTNLTVTDKDEPGTPAWNAVYRIISGDPTGRFSIPTDPVTNEGLVTVVKPVDFEMNRSFMLTVVADNEVPLASGIHRTRQSTATVSIRVIDVNESPNFDPNPKQIKLEEGLPQWSMLTTFTAHDPDRYMQQTISYSKLYDPANWLEIDPNNGRISTIAVLDRESPYVKNNLYNATFMASDNGVPRASGTGTLQIYLLDINDNAPRVFPQEAEVCERPEPNAINITAVDGDLNPNAGPYAFELPNRPSDIRRNWTLTRISGDHAQLSLKISYLESGIYELPISITDSGNLPMSNTTYLRIKVCQCDHHGDCVDMERIMAAGLGTGA
# Target: the molecule itself
# Test: bead aggregation assay
protein,measurement,value
B1,binding result,binds

# Source: publication PMC2995167 (The Journal of Cell Biology, 2010)
